# Assay results reported in patent US11274129B2, “Methods for protein tyrosine phosphorylation profiling with variant SH2 domains” (priority 2016, dated 2022).
# Tested on: mixture of 40 different pTyr-including peptides derived from ITRMs
# Assay: Capture of pTyr-including peptides from a mixture of ITRM peptides by QuadM-TrM tandem Superbinder versus TrM human Src SH2 Superbinder, scheduled PRM
# Format: binding
# Settings: for (QT-TrM)/mean: QuadM-TrM tandem vs TrM human Src SH2 Superbinder, PRM peak area
# Text: A QuadM-TrM tandem Superbinder (SEQ ID NO: 15) was produced in E. Coli by expressing a recombinant DNA that contained the gene encoding the QuadM human Src Superbinder (SEQ ID NO: 12) in tandem with the gene encoding the TrM human Src Superbinder (SEQ ID NO: 5). Equal molar amounts (200 pmole) of the QuadM-TrM tandem Superbinder and the TrM human Src SH2 Superbinder were used to capture pTyr-including peptides from a mixture of 40 different pTyr-including peptides (200 fmole each) derived from ITRMs. The isolated peptides were identified by scheduled PRM and quantified based on the corresponding MS peak area.
# Shown are the relative preferences of each pTyr-including peptide for the QuadM-TrM tandem Superbinder versus the TrM human Src SH2 Superbinder, as defined by the value of “(QT-TrM)/Mean”, where “QT” represents the amount of pTyr-including peptide captured by the QuadM-TrM tandem Superbinder, “TrM” represents the amount of pTyr-including peptide captured by the TrM human Src SH2 Superbinder, and “Mean” represents the mean amount of pTyr-including peptide captured by both the QuadM-TrM tandem Superbinder and the TrM human Src SH2 Superbinder. Yellow and blue shaded boxes indicate hydrophobic and hydrophilic residues, respectively, at the pTyr+3 position in the sequence of the pTyr-including peptide.
molecule,measurement,setting,value
"QuadM-TrM tandem Superbinder: QuadM human Src Superbinder in tandem with the TrM human Src Superbinder in a single protein (protein, SH2 protein domain; QuadM-TrM human Src SH2 tandem domain) DSIQAEEWYFGKITRRESERLLLNAENPRGTFLVRESETVKGAYALSVSDFDNAKGLNVRHYLIRKLDSGGFYIWSRTQFNSLQQLVAYYSKHADGLSHRLTTVSPTSKGGSGGSMDSIQAEEWYFGKITRRESERLLLNAENPRGTFLVRESETVKGAYALSVSDFDNAKGLNVRHYLIRKLDSGGFYITSRTQFNSLQQLVAYYSKHADGLSHRLTTVSPTSK",capture of pTyr-including peptides relative to the TrM human Src Superbinder,"200 pmole Superbinder, 200 fmole each peptide",improved capture of pTyr-including peptides
same,(QT-TrM)/mean,peptide ARFGAP2_pY445 EVDAEpYEAR,0.3
same,(QT-TrM)/mean,peptide ARHGAP15_pY219 SSSTELLSHpYDSDIK,0.3
same,(QT-TrM)/mean,peptide ARHGEF6_pY644 KPSEEEpYVIR,1.2
same,(QT-TrM)/mean,peptide ARID1A_pY229 SAYPPPAPApYALSSPR,0.3
same,(QT-TrM)/mean,peptide ASNS_pY216 DVPLHALpYDNVEK,0.3
same,(QT-TrM)/mean,peptide C9orf78_pY277 ATDDpYHYEK,0.6
same,(QT-TrM)/mean,peptide CD3D_pY160 DDAQpYSHLGGNWAR,0.3
same,(QT-TrM)/mean,peptide CD3E_pY188 ERPPPVPNPDpYEPIR,0.5
same,(QT-TrM)/mean,peptide CD3E_pY199 DLpYSGLNQR,0.0
same,(QT-TrM)/mean,peptide CD3G_pY160 QTLLPNDQLpYQPLK,0.2
same,(QT-TrM)/mean,peptide CD3G_pY171 EDDQpYSHLQGNQLR,0.0
same,(QT-TrM)/mean,peptide CD28_pY206/209 HpYQPpYAPPR,0.3
same,(QT-TrM)/mean,peptide CD28_pY218 DFAApYR,1.3
same,(QT-TrM)/mean,peptide CD84_pY296 IpYDEILQSK,−0.1
same,(QT-TrM)/mean,peptide CD84_pY316 EEPVNTVpYSEVQFADK,0.1
same,(QT-TrM)/mean,peptide CD247_pY72 SADAPAYQQGQNQLpYNELNLGR,1.5
same,(QT-TrM)/mean,peptide CD247_pY111 NPQEGLpYNELQK,0.0
same,(QT-TrM)/mean,peptide CD247_pY142 GHDGLpYQGLSTATK,0.4
same,(QT-TrM)/mean,peptide CLPTM1L_pY527 VNEFGESpYEEK,0.3
same,(QT-TrM)/mean,peptide DBN1_pY34 ALpYTYEDGSDDLK,0.0
same,(QT-TrM)/mean,peptide EXOC4_pY51 LEEApYEK,0.5
same,(QT-TrM)/mean,peptide HCLS1_pY175 AALGpYDYK,0.3
same,(QT-TrM)/mean,peptide ITK_pY512 FVLDDQpYTSSTGTK,1.0
same,(QT-TrM)/mean,peptide LAT_pY110 DSDGANSVASpYENEGASGlR,−0.2
same,(QT-TrM)/mean,peptide LAT_pY220 EpYVNVSQELHPGAAK,0.2
same,(QT-TrM)/mean,peptide LCP1_pY300 AYpYHLLEQVAPK,0.4
same,(QT-TrM)/mean,peptide LIMD2_pY102 GNpYDEGFGR,0.0
same,(QT-TrM)/mean,peptide PJA2_pY28 AVWPKPAGGpYQTITGR,0.4
same,(QT-TrM)/mean,peptide PLCG2_pY1245 EFSVNENQLQLpYQEK,1.2
same,(QT-TrM)/mean,peptide PTPN7_pY149 AQSQEDGDpYINANYIR,0.0
same,(QT-TrM)/mean,peptide RBMX_pY335 SDLpYSSGR,0.6
same,(QT-TrM)/mean,peptide RFTN1_pY20 RPGNIpYSTLK,0.3
same,(QT-TrM)/mean,peptide SIT1_pY148 pYSEVVLDSEPK,−0.2
same,(QT-TrM)/mean,peptide SPEN_pY1399 ASALpYESSR,−0.1
same,(QT-TrM)/mean,peptide THUMPD1_pY22 AQpYVLAK,−0.2
same,(QT-TrM)/mean,peptide TLR7_pY1041 NALATDNHVApYSQVFK,0.1
same,(QT-TrM)/mean,peptide TRAF3IP3_pY178/179 GQQIpYpYHK,0.9
same,(QT-TrM)/mean,peptide TRAF3IP3_pY179 GQQIYpYHK,1.5
same,(QT-TrM)/mean,peptide ZAP70_pY164 MPWpYHSSLTR,0.2
same,(QT-TrM)/mean,peptide ZAP70_pY292 IDTLNSDGpYTPEPAR,0.3
